Earlier results, collected in paper PMC3789827.
pKd: −log10 of the molar value.

Legend:
[1] = target: BMPR1A ECD (Homo sapiens) (UniProt P36894); test: SPR (Biacore)
[2] = target: BMPR1B ECD (Homo sapiens) (UniProt O00238); test: SPR (Biacore)
BMPR1B ECD (Homo sapiens), sequence (O00238 14-126): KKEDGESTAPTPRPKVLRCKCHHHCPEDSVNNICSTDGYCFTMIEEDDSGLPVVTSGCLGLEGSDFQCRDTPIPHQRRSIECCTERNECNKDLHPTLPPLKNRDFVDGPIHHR

GDF5, sequence (P43026 382-501): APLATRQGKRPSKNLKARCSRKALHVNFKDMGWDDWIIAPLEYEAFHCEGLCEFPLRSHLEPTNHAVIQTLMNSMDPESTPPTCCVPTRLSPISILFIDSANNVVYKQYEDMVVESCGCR
BMPR1A ECD (Homo sapiens), sequence (P36894 24-152): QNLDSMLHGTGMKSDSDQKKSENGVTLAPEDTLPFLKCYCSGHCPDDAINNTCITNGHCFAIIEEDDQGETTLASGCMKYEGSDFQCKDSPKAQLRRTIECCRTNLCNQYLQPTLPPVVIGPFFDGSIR

pKd [1]: 7.77
pKd [2]: 8.96
Substance: GDF5 (from UniProt P43026)
